This data set deals with the molecule itself. Put plainly: crystal structure; X-ray, 2.3 Å, space group C2, three-fold non-crystallographic symmetry; crystals grown at 20 °C from purified Fsx1E (in 20 mM Na-HEPES pH 7.8, 2.5 M NaCl) mixed with 23% PEG 4000, 0.1 M Tris-HCl pH 8.5, 0.2 M CaCl2.

The term stoichiometry N denotes a count of units in the complex or per binding partner.

B1: Fusexin1 ectodomain (Fsx1E), residues D25-S535 with T369C, crystallised construct (domain or fragment, UniProt C0HM55 25-535, looked up)
chain: DSITYNSGTSEFFDGDVFAIEVTADQSTDEIDIYLGASELSEKTDGEVNQDLSIEFTHQDSKLKYSTSTSDELRDIVTLTTYYEDGFDTEQDAIDAIKSDCYDLNQNGNGSGRYSRYYSVTSPVYDYEIYCFQKNEKLATPAYIDNPDEIFTAKAELQAGDKTIQSATLSNGDAGDGTVTDLGDSKISWNGNLDLGASEPENSRVIALYSNDFENGWRIGNKQSYEDYKTFIGGGDAYDLLIDWQDGTYTASEVEDELVNTDANQAVEEASSSTTDLVNAKVKDSSLDTGSFVYDTPELLSYPSFTVYVDAGENGYIEVTKPTGDPDIISTSSTEIKEGDEGTVCATVENVGDGEGEFSGRLSSCGEGFSIVDDQNTKNVGAGESVTYSFDVAFSSVSSESKEISGSCTFEVNGVESSDSTSVSVTGIQQSECNPGDQRREKNENDRWEIYTCQDNGLTYEYDVTCAEDEKAVAQGDNQFSCEKQDDDSGGGDNTGSDSGLFSNLFGGSGS
notes: Fusexin1 (Fsx1), archaeal fusexin from a metagenomic ORF of a hypersaline environment (IMG genome 3300000868, scaffold JGI12330J12834_1000008, ORF 8); extracellular region, residues D25-S535; Expressed from pLJ6 (derived from pHLsec3) behind the chicken Crypα signal peptide, in frame with a 3' 8xHis tag; T369C was introduced to help heavy atom derivatisation; Homotrimer in the crystal; also …
With B1, the “stoichiometry N” value was determined as 3.

The record behind these values is article PMC9259645, “Discovery of archaeal fusexins homologous to eukaryotic HAP2/GCS1 gamete fusion proteins” (Nature Communications, 2022).
